According to US20210017284A1 (ABEOME, published 2021):

B1: hABM101.11 (IgG4) (antibody, V domains shown)
VH: QVQLVQSGPEVKKPGASVKVSCKASGYTFTENSMHWVRQSHGKSLEWMGGINPNNGGTSYNQKFKGKVTMTTDKSTSTAYMELRSLTSDDTAVYYCARPYYYGYREDYFDYWGQGTTLTVSS
VL: EIVMTQSPGTLSLSPGERATLSCRASSSVSYMYWYQQKPGQAPRPLIYLTSNLASGIPDRFSGSGSGTDYTLTISRLEPEDFAVYYCQQWSSYPPTFGQGTKVEIKR
B2: hABM101.11 (IgG1) (antibody, V domains shown)
VH: QVQLVQSGPEVKKPGASVKVSCKASGYTFTENSMHWVRQSHGKSLEWMGGINPNNGGTSYNQKFKGKVTMTTDKSTSTAYMELRSLTSDDTAVYYCARPYYYGYREDYFDYWGQGTTLTVSS
VL: EIVMTQSPGTLSLSPGERATLSCRASSSVSYMYWYQQKPGQAPRPLIYLTSNLASGIPDRFSGSGSGTDYTLTISRLEPEDFAVYYCQQWSSYPPTFGQGTKVEIKR

Experiments:
[1] = biological target: T1, human PD-L1 (human, UniProt Q9NZQ7 19-238, limits assumed); experiment: SPR (format not described)
T1 construct: also called CD274; B7-H1

[2] = biological target: T2, cynomolgus monkey PD-L1 (cynomolgus monkey, UniProt G7PSE7 19-238); experiment: SPR (format not described)
T2 construct: PD-L1 is implied
T2 sequence (G7PSE7 entry or part of it): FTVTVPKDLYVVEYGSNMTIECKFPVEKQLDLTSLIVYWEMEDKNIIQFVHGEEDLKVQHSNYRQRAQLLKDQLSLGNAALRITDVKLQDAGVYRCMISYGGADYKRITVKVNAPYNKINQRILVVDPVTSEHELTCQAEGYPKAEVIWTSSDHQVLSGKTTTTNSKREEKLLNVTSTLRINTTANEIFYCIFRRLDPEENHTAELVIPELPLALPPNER

T1 sequence (Q9NZQ7 19-238 limits assumed): as the sequence (G7PSE7 entry or part of it) above, with T33A, S34A, N62S, Q68R, R82Q, L173F, A185T, I192T, L215H counted along it

Binder | Kd [1] [pM] | Kd [2] [pM]
B1 | 349 | –
B2 | 374 | 579
